# Data from article PMC9352680, “A comprehensive thermodynamic model for RNA binding by the Saccharomyces cerevisiae Pumilio protein PUF4”.
# T1: PUF4 RNA-binding domain (Saccharomyces cerevisiae, UniProt P25339 537-888)
# T1 sequence: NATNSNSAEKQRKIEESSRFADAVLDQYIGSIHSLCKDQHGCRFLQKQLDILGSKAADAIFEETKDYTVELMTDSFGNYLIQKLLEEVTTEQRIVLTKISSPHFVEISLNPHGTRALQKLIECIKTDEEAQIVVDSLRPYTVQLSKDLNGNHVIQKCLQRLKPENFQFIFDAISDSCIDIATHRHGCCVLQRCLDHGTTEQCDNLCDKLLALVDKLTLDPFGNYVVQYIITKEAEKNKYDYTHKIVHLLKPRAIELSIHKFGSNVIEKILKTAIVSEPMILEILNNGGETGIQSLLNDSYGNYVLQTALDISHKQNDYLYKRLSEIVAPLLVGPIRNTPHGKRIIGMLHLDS
# Molecular target: T1, PUF4 RNA-binding domain
# Assay: Mg; RNA-MaP; 20 mM Na-HEPES pH 7.4, 30 mM KOAc, 0.75 mM MgCl2, 0.1% Tween-20, 5% glycerol, 0.1 mg/mL BSA, 2 mM DTT; 25 C; 0.0125-409.6 nM protein
# Settings: tags: N-His6-TEV cleaved; C-SNAP kept, Cy3B-labelled; label: tethered on chip by stalled RNA polymerase
row,Binder,Kd [nM]
1,Ic_S2_P5E.1_K5.1_C5.1_H5.1_A5.1_[T5C]_[A7C]_F5.1_[T9C]_[A10T]_T5.1 (ssRNA) RNA: UUUGAUUAAUAUGAUAUCGUUCUUUCUUGUACUCUCUUUCUUUCUCGAUAUCAUAUUAAUCUUU,13.5
2,Ic_S2_P5E.1_K5.1_C5.1_H5.1_A5.1_[T5C]_[T6G]_[A7C]_F5.1_[T8C]_[T9C]_T5.1 (ssRNA) RNA: UUUGAUUAAUAUGAUAUCGUUCUUUCUUGUACGCCCAUUCUUUCUCGAUAUCAUAUUAAUCUUU,558
3,Ic_S2_P5E.1_K5.1_C5.1_H5.1_A5.1_[T5G]_[T6C]_[A7C]_F5.1_[T8C]_[T9A]_[A10T]_T5.1 (ssRNA) RNA: UUUGAUUAAUAUGAUAUCGUUCUUUCUUGUAGCCCAUUUCUUUCUCGAUAUCAUAUUAAUCUUU,819
4,Ic_S2_P5E.1_K5.1_C5.1_H5.1_A5.1_[T5G]_F5.1_[T8A]_[A10T]_T5.1 (ssRNA) RNA: UUUGAUUAAUAUGAUAUCGUUCUUUCUUGUAGUAAUUUUCUUUCUCGAUAUCAUAUUAAUCUUU,342
5,Ic_S2_P5E.1_K5.1_C5.1_H5.1_A5.1_[T5G]_[A7C]_F5.1_[T9C]_[A10G]_T5.1 (ssRNA) RNA: UUUGAUUAAUAUGAUAUCGUUCUUUCUUGUAGUCUCGUUCUUUCUCGAUAUCAUAUUAAUCUUU,706
6,Ic_S2_P5E.1_K5.1_C5.1_H5.1_A5.1_[T5C]_F5.1_[T8A]_[T9C]_[A10C]_T5.1 (ssRNA) RNA: UUUGAUUAAUAUGAUAUCGUUCUUUCUUGUACUAACCUUCUUUCUCGAUAUCAUAUUAAUCUUU,228
7,Ic_S2_P5E.1_K5.1_C5.1_H5.1_A5.1_[T5A]_[T6A]_[A7T]_F5.1_[T9A]_T5.1 (ssRNA) RNA: UUUGAUUAAUAUGAUAUCGUUCUUUCUUGUAAAUUAAUUCUUUCUCGAUAUCAUAUUAAUCUUU,2.21
8,Ic_S2_P5E.1_K5.1_C5.1_H5.1_A5.1_[T6G]_[A7T]_F5.1_[T8A]_[T9A]_T5.1 (ssRNA) RNA: UUUGAUUAAUAUGAUAUCGUUCUUUCUUGUAUGUAAAUUCUUUCUCGAUAUCAUAUUAAUCUUU,53.7
9,Ic_S2_P5E.1_K5.1_C5.1_H5.1_A5.1_[T6C]_F5.1_[T8G]_[T9C]_[A10C]_T5.1 (ssRNA) RNA: UUUGAUUAAUAUGAUAUCGUUCUUUCUUGUAUCAGCCUUCUUUCUCGAUAUCAUAUUAAUCUUU,389
10,Ic_S4_P3E.1_K3.1_C3.1_H3.1_A3.1_[T5G]_[A6C]_F3.1_[T7G]_[A8G]_T3.1 (ssRNA) RNA: UUUGACAACUGAUCGUUCUUUCUUGUAGCGGUUCUUUCUCGAUCAGUUGUCUUU,1270
11,Ic_S4_P3E.1_K3.1_C3.1_H3.1_A3.1_[T5G]_[A6C]_F3.1_[T7G]_[A8C]_T3.1 (ssRNA) RNA: UUUGACAACUGAUCGUUCUUUCUUGUAGCGCUUCUUUCUCGAUCAGUUGUCUUU,1710
12,Ic_S4_P3E.1_K3.1_C3.1_H3.1_A3.1_[T5C]_[A6C]_F3.1_[T7A]_[A8C]_T3.1 (ssRNA) RNA: UUUGACAACUGAUCGUUCUUUCUUGUACCACUUCUUUCUCGAUCAGUUGUCUUU,79.7
13,Ic_S4_P3E.1_K3.1_C3.1_H3.1_A3.1_[T5C]_[A6T]_F3.1_[T7C]_[A8T]_T3.1 (ssRNA) RNA: UUUGACAACUGAUCGUUCUUUCUUGUACUCUUUCUUUCUCGAUCAGUUGUCUUU,12.3
14,Ic_S4_P3E.1_K3.1_C3.1_H3.1_A3.1_[T5C]_F3.1_[T7C]_[A8T]_T3.1 (ssRNA) RNA: UUUGACAACUGAUCGUUCUUUCUUGUACACUUUCUUUCUCGAUCAGUUGUCUUU,5.34
15,Ic_S4_P3E.1_K3.1_C3.1_H3.1_A3.1_[T5G]_[A6C]_F3.1_[T7A]_[A8T]_T3.1 (ssRNA) RNA: UUUGACAACUGAUCGUUCUUUCUUGUAGCAUUUCUUUCUCGAUCAGUUGUCUUU,35.8
16,Ic_S4_P3E.1_K3.1_C3.1_H3.1_A3.1_[T5C]_[A6T]_F3.1_[A8T]_T3.1 (ssRNA) RNA: UUUGACAACUGAUCGUUCUUUCUUGUACUUUUUCUUUCUCGAUCAGUUGUCUUU,10.1
17,Ic_S4_P3E.1_K3.1_C3.1_H3.1_A3.1_[T5C]_[A6T]_F3.1_[T7G]_[A8C]_T3.1 (ssRNA) RNA: UUUGACAACUGAUCGUUCUUUCUUGUACUGCUUCUUUCUCGAUCAGUUGUCUUU,442
18,Ic_S4_P3E.1_K3.1_C3.1_H3.1_A3.1_[T5G]_[A6C]_F3.1_[T7C]_[A8C]_T3.1 (ssRNA) RNA: UUUGACAACUGAUCGUUCUUUCUUGUAGCCCUUCUUUCUCGAUCAGUUGUCUUU,648
19,Ic_S4_P3E.1_K3.1_C3.1_H3.1_A3.1_[T5G]_[A6T]_F3.1_[T7G]_[A8T]_T3.1 (ssRNA) RNA: UUUGACAACUGAUCGUUCUUUCUUGUAGUGUUUCUUUCUCGAUCAGUUGUCUUU,100
20,Ic_S4_P3E.1_K3.1_C3.1_H3.1_A3.1_[T5C]_[A6C]_F3.1_[A8T]_T3.1 (ssRNA) RNA: UUUGACAACUGAUCGUUCUUUCUUGUACCUUUUCUUUCUCGAUCAGUUGUCUUU,13.4
21,Ic_S4_P3E.1_K3.1_C3.1_H3.1_A3.1_[T5C]_[A6C]_F3.1_[T7C]_[A8T]_T3.1 (ssRNA) RNA: UUUGACAACUGAUCGUUCUUUCUUGUACCCUUUCUUUCUCGAUCAGUUGUCUUU,14.2
22,Ic_S4_P3E.1_K3.1_C3.1_H3.1_A3.1_[T5G]_[A6T]_F3.1_[T7A]_[A8C]_T3.1 (ssRNA) RNA: UUUGACAACUGAUCGUUCUUUCUUGUAGUACUUCUUUCUCGAUCAGUUGUCUUU,404
23,Ic_S4_P3E.1_K3.1_C3.1_H3.1_A3.1_[T5C]_[A6T]_F3.1_[T7A]_[A8C]_T3.1 (ssRNA) RNA: UUUGACAACUGAUCGUUCUUUCUUGUACUACUUCUUUCUCGAUCAGUUGUCUUU,89.8
24,Ic_S4_P3E.1_K3.1_C3.1_H3.1_A3.1_[T5C]_F3.1_[T7C]_[A8C]_T3.1 (ssRNA) RNA: UUUGACAACUGAUCGUUCUUUCUUGUACACCUUCUUUCUCGAUCAGUUGUCUUU,26.4
25,Ic_S4_P3E.1_K3.1_C3.1_H3.1_A3.1_[T5C]_[A6T]_F3.1_[A8G]_T3.1 (ssRNA) RNA: UUUGACAACUGAUCGUUCUUUCUUGUACUUGUUCUUUCUCGAUCAGUUGUCUUU,103

row,Binder,Kd [nM]
1,Ic_S4_P3E.1_K3.1_C3.1_H3.1_A3.1_[T5G]_[A6C]_F3.1_[T7A]_[A8C]_T3.1 (ssRNA) RNA: UUUGACAACUGAUCGUUCUUUCUUGUAGCACUUCUUUCUCGAUCAGUUGUCUUU,243
2,Ic_S4_P3E.1_K3.1_C3.1_H3.1_A3.1_[T5C]_F3.1_[T7G]_[A8T]_T3.1 (ssRNA) RNA: UUUGACAACUGAUCGUUCUUUCUUGUACAGUUUCUUUCUCGAUCAGUUGUCUUU,15.3
3,Ic_S4_P3E.1_K3.1_C3.1_H3.1_A3.1_[T5C]_[A6T]_F3.1_[T7A]_T3.1 (ssRNA) RNA: UUUGACAACUGAUCGUUCUUUCUUGUACUAAUUCUUUCUCGAUCAGUUGUCUUU,46.5
4,Ic_S4_P3E.1_K3.1_C3.1_H3.1_A3.1_[T5G]_[A6T]_F3.1_[T7A]_[A8T]_T3.1 (ssRNA) RNA: UUUGACAACUGAUCGUUCUUUCUUGUAGUAUUUCUUUCUCGAUCAGUUGUCUUU,52.9
5,Ic_S4_P3E.1_K3.1_C3.1_H3.1_A3.1_[T5C]_[A6G]_F3.1_[T7G]_[A8C]_T3.1 (ssRNA) RNA: UUUGACAACUGAUCGUUCUUUCUUGUACGGCUUCUUUCUCGAUCAGUUGUCUUU,1030
6,Ic_S4_P3E.1_K3.1_C3.1_H3.1_A3.1_[T5C]_[A6T]_F3.1_[T7G]_[A8G]_T3.1 (ssRNA) RNA: UUUGACAACUGAUCGUUCUUUCUUGUACUGGUUCUUUCUCGAUCAGUUGUCUUU,1840
7,Ic_S4_P3E.1_K3.1_C3.1_H3.1_A3.1_[T5C]_[A6C]_F3.1_[T7C]_T3.1 (ssRNA) RNA: UUUGACAACUGAUCGUUCUUUCUUGUACCCAUUCUUUCUCGAUCAGUUGUCUUU,487
8,Ic_S4_P3E.1_K3.1_C3.1_H3.1_A3.1_[T5C]_[A6G]_F3.1_[T7C]_[A8G]_T3.1 (ssRNA) RNA: UUUGACAACUGAUCGUUCUUUCUUGUACGCGUUCUUUCUCGAUCAGUUGUCUUU,908
9,Ic_S4_P3E.1_K3.1_C3.1_H3.1_A3.1_[T5C]_[A6T]_F3.1_[T7C]_T3.1 (ssRNA) RNA: UUUGACAACUGAUCGUUCUUUCUUGUACUCAUUCUUUCUCGAUCAGUUGUCUUU,108
10,Ic_S4_P3E.1_K3.1_C3.1_H3.1_A3.1_[T5C]_F3.1_[A8T]_T3.1 (ssRNA) RNA: UUUGACAACUGAUCGUUCUUUCUUGUACAUUUUCUUUCUCGAUCAGUUGUCUUU,2.28
11,Ic_S4_P3E.1_K3.1_C3.1_H3.1_A3.1_[T5G]_[A6C]_F3.1_[T7A]_[A8G]_T3.1 (ssRNA) RNA: UUUGACAACUGAUCGUUCUUUCUUGUAGCAGUUCUUUCUCGAUCAGUUGUCUUU,836
12,Ic_S4_P3E.1_K3.1_C3.1_H3.1_A3.1_[T5G]_[A6C]_F3.1_[T7C]_T3.1 (ssRNA) RNA: UUUGACAACUGAUCGUUCUUUCUUGUAGCCAUUCUUUCUCGAUCAGUUGUCUUU,616
13,Ic_S4_P3E.1_K3.1_C3.1_H3.1_A3.1_[T5G]_[A6T]_F3.1_[T7G]_[A8C]_T3.1 (ssRNA) RNA: UUUGACAACUGAUCGUUCUUUCUUGUAGUGCUUCUUUCUCGAUCAGUUGUCUUU,506
14,Ic_S4_P3E.1_K3.1_C3.1_H3.1_A3.1_[T5C]_[A6T]_F3.1_[T7C]_[A8C]_T3.1 (ssRNA) RNA: UUUGACAACUGAUCGUUCUUUCUUGUACUCCUUCUUUCUCGAUCAGUUGUCUUU,120
15,Ic_S4_P3E.1_K3.1_C3.1_H3.1_A3.1_[T5C]_F3.1_[T7A]_T3.1 (ssRNA) RNA: UUUGACAACUGAUCGUUCUUUCUUGUACAAAUUCUUUCUCGAUCAGUUGUCUUU,41.6
16,Ic_S4_P3E.1_K3.1_C3.1_H3.1_A3.1_[T5A]_[A6C]_F3.1_[T7G]_[A8T]_T3.1 (ssRNA) RNA: UUUGACAACUGAUCGUUCUUUCUUGUAACGUUUCUUUCUCGAUCAGUUGUCUUU,270
17,Ic_S4_P3E.1_K3.1_C3.1_H3.1_A3.1_[T5C]_[A6G]_F3.1_[T7C]_T3.1 (ssRNA) RNA: UUUGACAACUGAUCGUUCUUUCUUGUACGCAUUCUUUCUCGAUCAGUUGUCUUU,444
18,Ic_S4_P3E.1_K3.1_C3.1_H3.1_A3.1_[T5C]_[A6C]_F3.1_[T7A]_[A8T]_T3.1 (ssRNA) RNA: UUUGACAACUGAUCGUUCUUUCUUGUACCAUUUCUUUCUCGAUCAGUUGUCUUU,5.15
19,Ic_S4_P3E.1_K3.1_C3.1_H3.1_A3.1_[T5G]_[A6C]_F3.1_[A8C]_T3.1 (ssRNA) RNA: UUUGACAACUGAUCGUUCUUUCUUGUAGCUCUUCUUUCUCGAUCAGUUGUCUUU,192
20,UCUCUUUAUAUAUUUUCUCUU (ssRNA) [Ib_S1_P4E.1_K4.1_C4.1_H4.1_[G2A]_A4.1_F4.1_[A9T]_T4.1],413
21,UCUCUUUGUGUAUUGUCUCUU (ssRNA) [Ib_S1_P4E.1_K4.1_C4.1_H4.1_[A4G]_A4.1_F4.1_[A9G]_T4.1],18.3
22,UCUCUUUGCAUAUUGUCUCUU (ssRNA) [Ib_S1_P4E.1_K4.1_C4.1_H4.1_[T3C]_A4.1_F4.1_[A9G]_T4.1],1840
23,UCUCUUUAUAUAUUAUCUCUU (ssRNA) [Ia_S1_P4E.1_K4.1_C4.1_H4.1_[G2A]_A4.1_F4.1_T4.1],14.1
24,UCUCUUUGCAUAUUUUCUCUU (ssRNA) [Ib_S1_P4E.1_K4.1_C4.1_H4.1_[T3C]_A4.1_F4.1_[A9T]_T4.1],> 2300
